Where two headings read alike, the source gives them in different places. Values belong to the binder of their own block, whether it stands above or below them.
How the values were obtained:
huNav1.7α [1] = molecular target: T1, huNav1.7α (human, UniProt Q15858 1-1988); test: binding FACS, HEKa cells
T1 construct: HEK cells expressing the α subunit alone; also called HEKa; HEK huNav1.7α

huNav1.7α+β1 [2] = molecular target: T2, huNav1.7α+β1 (human, UniProt Q15858 1-1988; Q07699 19-218); test: binding FACS, HEK293 cells
T2 construct: also called huNav1.7-beta1; HEKa/β1
Description: (§1) Binding of the ISVDs to cell-expressed Nav1.7α was detected via murine anti-Flag (Sigma, catalog #F1804). Briefly, cells were resuspended in FACS buffer (PBS, 10% FBS, NaN₃) and transferred to a 96-well V-bottom plate at 1×10^5 cells/well. Purified FLAG3-tagged ISVD was diluted in FACS buffer and added to the cells for 30 minutes at 4° C. […] Prior to the read-out, the samples were resuspended in 1 μg/mL propidium iodide (Sigma, catalog #P4170) to exclude dead cells. Between each step, the cells were centrifuged for 5 minutes at 200 grams and washed with 100 μL/well FACS buffer.
(§2) Crude periplasmic extracts containing ISVDs from phage display selections (as described above) were screened in FACS for binding to huNav1.7α but not to huNav1.5a. […] As used in Table 8, the drawings, and throughout the description, Navβ1, Navβ2, and Navβ3 are human homologs unless specifically identified otherwise.

huNav1.7α+β1-β2-β3 [3] = molecular target: T3, huNav1.7α+β1-β2-β3 (human, UniProt Q15858 1-1988; Q07699 19-218; O60939 30-215; Q9NY72 23-215); test: binding FACS, CHO FlpIn cells
T3 construct: 5N11S variant; also called huNav1.7-beta1-beta2-beta3; huNav1.7α+Navβ1-Navβ2-Navβ3
Description: as §1, §2

huNav1.7α+β1 [4] = molecular target: T2, huNav1.7α+β1; test: binding FACS, HEKa/β1 cells
huNav1.3α = molecular target: T4, huNav1.3α (human, UniProt Q9NY46 1-2000); test: binding FACS on stable huNav1.x paralog HEK293T cell lines
T4 construct: also called huNav1.3 (alpha subunit)

huNav1.1α = huNav1.1α (human, UniProt P35498 1-2009); test: as above
huNav1.4α = molecular target: T5, huNav1.4α (human, UniProt P35499 1-1836); test: as above
T5 construct: also called huNav1.4 (alpha subunit)

huNav1.8α = molecular target: T6, huNav1.8α (human, UniProt Q9Y5Y9 1-1956); test: as above
T6 construct: also called huNav1.8 (alpha subunit)

huNav1.6α = molecular target: T7, huNav1.6α (human, UniProt Q9UQD0 1-1980); test: as above
T7 construct: also called huNav1.6 (alpha subunit)

huNav1.2α = molecular target: T8, huNav1.2α (human, UniProt Q99250 1-2005); test: as above
T8 construct: also called huNav1.2 (alpha subunit)

huNav1.5α = molecular target: T9, huNav1.5α (human, UniProt Q14524 1-2016); test: as above
T9 construct: also called huNav1.5 (alpha subunit)

huNav1.5α+β1-β2-β3 = molecular target: T10, huNav1.5α+β1-β2-β3 (human, UniProt Q14524 1-2016; A5A6L6 19-218; O60939 30-215; Q2KI11 23-215); test: binding FACS, HEK FlpIn cells
T10 construct: in the cell P2A cleaves it into α, β1, β2, β3; also called huNav1.5-beta1-beta2-beta3
Description: as §1, §2

[5] = molecular target: T11, huNav157chimera14+β1-β2-β3 (human, UniProt Q07699 19-218; O60939 30-215; Q9NY72 23-215); test: binding FACS, HEK FlpIn cells
T11 construct: HEK FlpIn line; also called huNav157 chimera 14-beta1-beta2-beta3; Nav157ch14-β1-β2-β3
Description: as §1, §2

huNav1.7α+β1-β2-β3 [6] = molecular target: T3, huNav1.7α+β1-β2-β3; test: binding FACS, HEK FlpIn cells
Description: as §1, §2

rhNav1.7α + β1-β2-β3 [7] = molecular target: rhNav1.7α + β1-β2-β3 (rhesus monkey); test: cell-based or functional assay
huNav1.7α + β1 [8] = molecular target: huNav1.7α + β1 (human); test: cell-based or functional assay
huNav1.7α [9] = molecular target: T12, huNav1.7α (human, UniProt Q15858 1-1988); test: binding FACS, HEK
T12 construct: HEK cells expressing the α subunit without β subunits; also called huNav1.7 (alpha-subunit); Human Nav1.7α

huNav1.7α + β1 [10] = molecular target: T13, huNav1.7α + β1 (human); test: binding FACS, HEK
T13 construct: HEK293 cells; also called huNav1.7-beta1; huNav1.7-β1

rhNav1.7α + β1-β2-β3 [11] = molecular target: rhNav1.7α + β1-β2-β3 (rhesus monkey); test: cell-based or functional assay; remark: listed apart in the source
huNav1.7α + β1 [12] = molecular target: T13, huNav1.7α + β1; test: cell-based or functional assay; remark: listed apart in the source
huNav1.7α [13] = molecular target: T12, huNav1.7α; test: competition FACS vs EC25 of F103275B05(N93R), HEK
huNav1.7α + β1 [14] = molecular target: T13, huNav1.7α + β1; test: competition FACS vs EC25 of F103275B05(N93R), HEK
huNav1.7α + β1-β2-β3 [15] = molecular target: T14, huNav1.7α + β1-β2-β3 (human, UniProt Q15858 1-1988; A5A6L6 19-218; O60939 30-215; Q2KI11 23-215); test: competition FACS vs EC25 of F103275B05(N93R), HEK FlpIn
T14 construct: also called huNav1.7-beta1-beta2-beta3; huNav1.7-β1-β2-β3

rhNav1.7α + β1-β2-β3 [16] = molecular target: rhNav1.7α + β1-β2-β3 (rhesus monkey); test: cell-based or functional assay; remark: listed apart in the source
huNav1.7α + β1-β2-β3 [17] = molecular target: T14, huNav1.7α + β1-β2-β3; test: cell-based or functional assay
huNav1.7α [18] = molecular target: T12, huNav1.7α; test: cell-based or functional assay
Rhesus Nav1.7α = Rhesus Nav1.7α (rhesus, UniProt Q15858 1-1988 (human entry)); test: cell-based or functional assay
huNav1.7α + β1-β2-β3 [19] = molecular target: T14, huNav1.7α + β1-β2-β3; test: competition FACS vs EC25 of F103275B05(N93R), CHO FlpIn
rhNav1.7α + β1-β2-β3 [20] = molecular target: T15, rhNav1.7α + β1-β2-β3 (rhesus monkey); test: competition FACS vs EC40 of F103275B05(N93R), CHO FlpIn
T15 construct: also called rhNav1.7-beta1-beta2-beta3; rhNav1.7-β1-β2-β3

T6 sequence (Q9Y5Y9 whole entry): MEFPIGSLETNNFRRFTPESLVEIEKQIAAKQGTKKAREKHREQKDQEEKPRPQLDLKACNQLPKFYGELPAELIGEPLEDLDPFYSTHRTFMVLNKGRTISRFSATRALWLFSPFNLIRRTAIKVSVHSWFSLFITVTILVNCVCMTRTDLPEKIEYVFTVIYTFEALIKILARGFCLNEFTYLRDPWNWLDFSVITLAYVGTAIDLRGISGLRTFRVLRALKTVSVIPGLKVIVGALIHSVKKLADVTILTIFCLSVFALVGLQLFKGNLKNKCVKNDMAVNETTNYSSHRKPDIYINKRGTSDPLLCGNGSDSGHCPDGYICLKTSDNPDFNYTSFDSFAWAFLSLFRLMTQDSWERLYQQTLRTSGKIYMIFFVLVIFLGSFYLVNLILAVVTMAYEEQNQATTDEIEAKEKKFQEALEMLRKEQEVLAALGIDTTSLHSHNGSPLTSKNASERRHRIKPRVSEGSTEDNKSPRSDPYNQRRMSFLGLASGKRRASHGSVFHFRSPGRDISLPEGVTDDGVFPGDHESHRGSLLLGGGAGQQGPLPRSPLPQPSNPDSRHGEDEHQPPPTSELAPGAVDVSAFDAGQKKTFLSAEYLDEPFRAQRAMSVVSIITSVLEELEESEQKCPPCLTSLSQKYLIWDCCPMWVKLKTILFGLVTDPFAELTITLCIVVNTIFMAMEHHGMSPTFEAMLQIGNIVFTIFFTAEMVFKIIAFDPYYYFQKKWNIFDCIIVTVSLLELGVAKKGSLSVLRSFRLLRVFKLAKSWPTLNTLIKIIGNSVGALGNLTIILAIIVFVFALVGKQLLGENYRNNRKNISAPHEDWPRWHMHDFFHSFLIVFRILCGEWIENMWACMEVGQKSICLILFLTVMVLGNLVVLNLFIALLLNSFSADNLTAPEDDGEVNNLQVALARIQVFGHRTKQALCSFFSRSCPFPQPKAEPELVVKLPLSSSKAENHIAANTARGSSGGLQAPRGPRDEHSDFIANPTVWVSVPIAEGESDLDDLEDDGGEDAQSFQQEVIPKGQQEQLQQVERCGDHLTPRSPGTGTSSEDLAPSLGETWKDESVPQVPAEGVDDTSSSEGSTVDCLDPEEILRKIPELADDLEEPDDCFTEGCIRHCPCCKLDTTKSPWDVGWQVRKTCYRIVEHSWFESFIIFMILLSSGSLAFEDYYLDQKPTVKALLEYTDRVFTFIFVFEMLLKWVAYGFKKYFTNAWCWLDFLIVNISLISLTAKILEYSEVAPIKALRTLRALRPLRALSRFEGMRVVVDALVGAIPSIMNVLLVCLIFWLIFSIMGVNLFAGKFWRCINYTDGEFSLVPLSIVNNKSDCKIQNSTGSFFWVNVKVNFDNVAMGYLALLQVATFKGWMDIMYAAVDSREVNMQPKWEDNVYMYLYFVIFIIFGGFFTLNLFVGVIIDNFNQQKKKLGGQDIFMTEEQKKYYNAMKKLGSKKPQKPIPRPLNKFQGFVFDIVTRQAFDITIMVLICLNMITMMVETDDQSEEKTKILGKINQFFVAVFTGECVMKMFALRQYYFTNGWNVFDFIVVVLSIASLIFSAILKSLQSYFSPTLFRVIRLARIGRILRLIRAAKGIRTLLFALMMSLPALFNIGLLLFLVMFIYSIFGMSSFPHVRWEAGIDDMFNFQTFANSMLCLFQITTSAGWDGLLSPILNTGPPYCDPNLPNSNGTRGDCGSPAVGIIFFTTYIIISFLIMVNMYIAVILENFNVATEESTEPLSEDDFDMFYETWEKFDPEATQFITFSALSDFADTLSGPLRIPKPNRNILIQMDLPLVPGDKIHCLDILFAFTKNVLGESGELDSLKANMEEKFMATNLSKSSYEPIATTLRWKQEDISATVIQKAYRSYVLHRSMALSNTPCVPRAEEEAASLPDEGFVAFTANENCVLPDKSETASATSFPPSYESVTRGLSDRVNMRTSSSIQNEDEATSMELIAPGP
T8 sequence (Q99250 whole entry): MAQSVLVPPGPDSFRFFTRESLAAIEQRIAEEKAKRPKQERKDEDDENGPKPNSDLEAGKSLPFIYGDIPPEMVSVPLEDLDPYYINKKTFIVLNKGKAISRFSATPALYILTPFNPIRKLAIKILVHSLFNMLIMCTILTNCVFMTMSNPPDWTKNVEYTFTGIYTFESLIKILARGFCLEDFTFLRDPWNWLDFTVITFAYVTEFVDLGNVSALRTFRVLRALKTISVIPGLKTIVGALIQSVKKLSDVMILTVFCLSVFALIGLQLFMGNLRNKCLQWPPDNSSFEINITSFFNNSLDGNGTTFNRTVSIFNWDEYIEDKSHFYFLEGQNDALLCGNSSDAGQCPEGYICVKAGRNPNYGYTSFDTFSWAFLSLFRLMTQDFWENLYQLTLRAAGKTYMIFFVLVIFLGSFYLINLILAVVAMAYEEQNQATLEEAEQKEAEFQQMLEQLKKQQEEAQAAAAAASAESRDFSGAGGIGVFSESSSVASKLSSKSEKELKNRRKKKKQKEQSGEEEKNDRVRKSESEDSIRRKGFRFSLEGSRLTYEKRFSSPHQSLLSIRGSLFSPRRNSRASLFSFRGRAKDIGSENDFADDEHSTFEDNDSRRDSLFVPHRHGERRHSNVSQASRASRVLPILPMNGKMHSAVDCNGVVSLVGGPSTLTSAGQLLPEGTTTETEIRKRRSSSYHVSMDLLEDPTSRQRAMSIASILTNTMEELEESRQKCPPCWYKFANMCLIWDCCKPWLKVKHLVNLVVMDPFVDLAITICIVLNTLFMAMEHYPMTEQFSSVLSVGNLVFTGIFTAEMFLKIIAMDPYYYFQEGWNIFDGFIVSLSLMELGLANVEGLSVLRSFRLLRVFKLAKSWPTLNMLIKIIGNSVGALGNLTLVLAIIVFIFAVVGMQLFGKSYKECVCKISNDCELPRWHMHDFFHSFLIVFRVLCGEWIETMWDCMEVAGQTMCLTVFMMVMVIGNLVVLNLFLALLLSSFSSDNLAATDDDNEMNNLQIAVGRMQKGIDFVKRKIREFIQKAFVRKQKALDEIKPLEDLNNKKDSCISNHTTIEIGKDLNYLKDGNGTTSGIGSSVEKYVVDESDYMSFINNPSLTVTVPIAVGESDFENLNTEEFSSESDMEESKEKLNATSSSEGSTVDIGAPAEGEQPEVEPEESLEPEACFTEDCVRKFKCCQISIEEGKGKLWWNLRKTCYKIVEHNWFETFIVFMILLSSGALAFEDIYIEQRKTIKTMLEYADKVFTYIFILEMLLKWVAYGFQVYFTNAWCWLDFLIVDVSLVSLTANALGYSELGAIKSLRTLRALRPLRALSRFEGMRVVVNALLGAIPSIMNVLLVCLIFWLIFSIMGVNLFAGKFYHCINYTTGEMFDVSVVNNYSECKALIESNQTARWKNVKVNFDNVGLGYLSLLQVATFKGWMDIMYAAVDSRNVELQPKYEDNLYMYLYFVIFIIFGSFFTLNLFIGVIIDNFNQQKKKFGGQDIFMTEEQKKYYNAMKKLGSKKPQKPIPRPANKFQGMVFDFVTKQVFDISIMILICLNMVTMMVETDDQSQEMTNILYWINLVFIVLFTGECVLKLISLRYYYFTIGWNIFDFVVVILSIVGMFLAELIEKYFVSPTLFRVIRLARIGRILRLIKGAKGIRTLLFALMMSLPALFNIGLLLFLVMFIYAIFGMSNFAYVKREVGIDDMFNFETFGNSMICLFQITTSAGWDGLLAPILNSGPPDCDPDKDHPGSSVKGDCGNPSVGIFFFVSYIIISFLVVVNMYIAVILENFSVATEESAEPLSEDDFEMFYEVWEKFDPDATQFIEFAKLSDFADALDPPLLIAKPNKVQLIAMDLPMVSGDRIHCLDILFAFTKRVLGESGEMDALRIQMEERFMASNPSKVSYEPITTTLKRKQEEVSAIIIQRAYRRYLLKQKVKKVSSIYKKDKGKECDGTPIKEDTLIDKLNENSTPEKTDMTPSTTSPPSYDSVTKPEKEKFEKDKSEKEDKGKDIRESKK

B1: F0103275B05 (parental)-FLAG-HIS6 (VHH)
VHH: EVQLVESGGGLVQPGGSLRLSCAASGSIFNINSMAWYRRAPGKQRELVASSTNGGSTNYADSVKGRFTISRDNAKRVYLQMNSLTPEDTAVYYCNALLQPSIYDISRTYWGQGTLVTVSS
notes: also called F01033275B05
EC50 (huNav1.7α [1]): 10 nM | EC50 (huNav1.7α+β1 [2]): 28 nM | EC50 (huNav1.7α+β1-β2-β3 [3]): 27 nM | EC50 (huNav1.7α+β1 [4]): 48 nM | binding result (huNav1.3α): no binding | binding result (huNav1.1α): no binding | binding result (huNav1.4α): no binding | binding result (huNav1.8α): no binding | binding result (huNav1.6α): no binding | binding result (huNav1.2α): no binding | binding result (huNav1.5α): no binding | binding result (huNav1.5α+β1-β2-β3): no binding | EC50 [5]: 39 nM | EC50 (huNav1.7α+β1-β2-β3 [6]): 37 nM

B3: 66ASP (Fc fusion)
chain: EVQLVESGGGLVQPGGSLRLSCAASGPVFNINSMAWYRRAPGKQRELVAYSTPGWDWNYADSVKGRFTISRDNAKRVYLQMNSLTPEDTAVYYCRWLLQPSIYDISRTYWGQGTLVTVSS
notes: also called F010300659-5GS-Fc; not shown: 5GS linker; Fc moiety
Qpatch IC50 [M], HEK cells (rhNav1.7α + β1-β2-β3 [7]): 5.2e-08 M | Qpatch IC50 [M], HEK cells (huNav1.7α + β1 [8]): 9.2e-08 M | EC50 (huNav1.7α [9]): 61 nM | EC50 (huNav1.7α + β1 [10]): 42 nM

The remaining lines, values ahead:

Qpatch IC50 [M], HEK cells (rhNav1.7α + β1-β2-β3 [7]): 1.8e-07 M | Qpatch IC50 [M], HEK cells (huNav1.7α + β1 [8]): 8.5e-08 M | EC50 (huNav1.7α [9]): 5.4 nM | EC50 (huNav1.7α + β1 [10]): 11 nM | Qpatch IC50 (rhNav1.7α + β1-β2-β3 [11]): 199 nM | Qpatch IC50 (huNav1.7α + β1 [12]): 85 nM
B2: F010300659 (VHH)
VHH: EVQLVESGGGLVQPGGSLRLSCAASGPVFNINSMAWYRRAPGKQRELVAYSTPGWDWNYADSVKGRFTISRDNAKRVYLQMNSLTPEDTAVYYCRWLLQPSIYDISRTYWGQGTLVTVSS
notes: also called F0103275B05(S27P, I28V, S50Y, N53P, G55W, S56D, T57W, N93R, A94W)-FLAG3 + HIS6

IC50 (huNav1.7α [13]): 110 nM | IC50 (huNav1.7α + β1 [14]): 4.3 nM | IC50 (huNav1.7α + β1-β2-β3 [15]): 10 nM | Qpatch IC50 (rhNav1.7α + β1-β2-β3 [16]): 2.8 nM | Qpatch IC50 (huNav1.7α + β1-β2-β3 [17]): 2.6 nM | Qpatch IC50 (huNav1.7α [18]): 123 nM | Qpatch IC50 (Rhesus Nav1.7α): 93 nM | IC50 (huNav1.7α + β1-β2-β3 [19]): 12 nM | IC50 (rhNav1.7α + β1-β2-β3 [20]): 6.5 nM
B4: F010302375 (bispecific antibody)
chain: DVQLVESGGGLVQPGGSLRLSCAASGSIFNINSMAWYRRAPGKQRELVASSTNGGSTNYADSVKGRFTISRDNAKRVYLQMNSLTPEDTAVYYCRALLQPSIYDISRTYWGQGTLVTVSSGGGGSGGGGSGGGGSGGGGSGGGGSGGGGSGGGGSGGGGSGGGGSGGGGSEVQLVESGGGLVQAGGSLRLSCAASGRAFSTLAMGWFRQAPGKEREFVAAISRNGNNSATGDSLKGRFTISRDSTKSTVFLQMNTLKPEDTAVYYCAAISTPSASHPYVRKESYRYWGQGTQVTVSSGAADYKDHDGDYKDHDIDYKDDDDKGAAHHHHHH
notes: also called F0103275B05(E1D, N93R)-50GS-F0103478E09(L108Q)-FLAG3-HIS6

Source: patent US20240002497A1 (Merck Sharp & Dohme, published 2024)
